According to the supplement of paper PMC7125110:
± gives the standard error. This sample holds only a part of the variants without activity.

B1: glmS ribozyme (parent)
chain: AUAAAAGCGCCAGAACUACAGAAAUGUAGUUGACGAGGAGGAGGUUUAUCGAAUUUUCGGCGGAUGCCUCCAAA

Key:
Conditions in all cases: with glucosamine-6-phosphate
[1] = variants of: B1; assay: self-cleavage kobs at 640 uM GlcN6P; higher = faster cleavage; RNA array
Procedure, shortened: (§1)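 Sequenced MiSeq chips were the platform: E. coli RNA polymerase transcribed barcoded ribozyme variants on them in situ, and a hybridised Cy3 probe tracked these at 37 °C. After glucosamine-6-phosphate (40 μM to 10 mM) in HEPES/KCl/Mg(OAc)2 buffer was flowed in, tiles were imaged over ~14 h. Signals normalised to baseline and to non-cleaving reference variants were reduced to per-tile medians and fit to one- or two-exponential decays to obtain kobs. kcat and KM were derived through weighted Michaelis–Menten fits across concentrations.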

[2] = variants of: B1; assay: self-cleavage kobs at 2500 uM GlcN6P; higher = faster cleavage; RNA array
Procedure, shortened: as §1

[3] = variants of: B1; assay: self-cleavage kobs at 10000 uM GlcN6P; higher = faster cleavage; RNA array
Procedure, shortened: as §1

Row | Variant | self-cleavage kobs at 640 uM GlcN6P [1] | self-cleavage kobs at 2500 uM GlcN6P [2] | self-cleavage kobs at 10000 uM GlcN6P [3]
1 | C16U A39G G66A | 0.00662 ± 0.0015 s⁻¹ |  | 
2 | A33U G41U G60C | < 1e-05 s⁻¹ |  | 
3 | C16A G32A C34A | < 1e-05 s⁻¹ | < 1e-05 s⁻¹ | < 1e-05 s⁻¹
4 | A33U G44C G51A U56A | < 1e-05 s⁻¹ |  | 
5 | G32U G35A U55G C68A | < 1e-05 s⁻¹ | < 1e-05 s⁻¹ | 
6 | C16G G37A U45A | 8.21e-05 ± 2.1e-05 s⁻¹ |  | 
7 | G29C G37A G38U A52G | < 1e-05 s⁻¹ |  | 
8 | G29C U54G C70G | 7.66e-05 ± 3.1e-05 s⁻¹ |  | 
9 | G32A A48C U55G G66A | < 1e-05 s⁻¹ |  | 
10 | A33C G37A G41C U56C | < 1e-05 s⁻¹ |  | 
11 | U31C U46C | 7.34e-05 ± 2.3e-05 s⁻¹ | 0.000204 ± 3.7e-05 s⁻¹ | 0.000295 ± 8e-05 s⁻¹
12 | U30A G38U | < 1e-05 s⁻¹ | < 1e-05 s⁻¹ | 
13 | G32A U49G C58G G63U U69G | 0.000279 ± 9.2e-05 s⁻¹ | 0.000153 ± 3.7e-05 s⁻¹ | 
14 | G32C U45G G60A C68G | < 1e-05 s⁻¹ | < 1e-05 s⁻¹ | 
15 | G32C A48U A64C | < 1e-05 s⁻¹ |  | 
16 | C16G A33U G38A G43U C67U | < 1e-05 s⁻¹ | < 1e-05 s⁻¹ | 
17 | G21U U69G | 6.25e-05 ± 1.4e-05 s⁻¹ | 9.89e-05 ± 2e-05 s⁻¹ | 
18 | A33C A52G C67U | < 1e-05 s⁻¹ | < 1e-05 s⁻¹ | 
19 | U31A A33G U49C C58G | < 1e-05 s⁻¹ |  | 
20 | A33C G44U C71A | < 1e-05 s⁻¹ | < 1e-05 s⁻¹ | 
21 | A28C | 0.0103 ± 0.0026 s⁻¹ |  | 0.0679 ± 0.022 s⁻¹
22 | A15G G35C A42U C50G C68A C71U | < 1e-05 s⁻¹ | < 1e-05 s⁻¹ | 
23 | G29C U45A C67A | 0.000165 ± 4.8e-05 s⁻¹ |  | 

Row | Variant | self-cleavage kobs at 640 uM GlcN6P [1] | self-cleavage kobs at 2500 uM GlcN6P [2] | self-cleavage kobs at 10000 uM GlcN6P [3]
24 | U31C G32A A39G | 0.000252 ± 4.9e-05 s⁻¹ |  | 0.0014 ± 0.00028 s⁻¹
25 | C34A C67A C71U | < 1e-05 s⁻¹ |  | 
26 | G29C G40A U65G | < 1e-05 s⁻¹ |  | 
27 | U30C G51A U65G | < 1e-05 s⁻¹ | < 1e-05 s⁻¹ | 
28 | G29U G40A C70U | 3.68e-05 ± 1.2e-05 s⁻¹ |  | 
29 | G26U A42U | 6.28e-05 ± 1.6e-05 s⁻¹ | 0.000124 ± 2.5e-05 s⁻¹ | 
30 | G29U U55G G59U C70G | 0.00019 ± 4.5e-05 s⁻¹ |  | 
31 | A33G A36U G38C | < 1e-05 s⁻¹ |  | 
32 | G29U U31G U47G C71A | 9.8e-05 ± 3.6e-05 s⁻¹ |  | 
33 | G32C G63A U65A | < 1e-05 s⁻¹ | < 1e-05 s⁻¹ | 
34 | G32U U47A A53G U56A C71U | 7.91e-05 ± 2.4e-05 s⁻¹ | 0.000259 ± 6.2e-05 s⁻¹ | 
35 | U30C G44U | < 1e-05 s⁻¹ | < 1e-05 s⁻¹ | < 1e-05 s⁻¹
36 | U30G U55A | 0.0024 ± 0.00049 s⁻¹ | 0.00295 ± 0.00084 s⁻¹ | 
37 | C16A G60U U69G | < 1e-05 s⁻¹ |  | 
38 | G29C U56C | 0.000147 ± 3.2e-05 s⁻¹ | 0.000116 ± 2.1e-05 s⁻¹ | 0.00068 ± 0.00019 s⁻¹
39 | A15G U49A C58A U69A C70U | 0.00014 ± 3.9e-05 s⁻¹ |  | 
40 | A33C G35C A42G G51U C70G | < 1e-05 s⁻¹ | < 1e-05 s⁻¹ | 
41 | G29U A33C G41A U49C G60A U65C | < 1e-05 s⁻¹ |  | 
42 | G29C G59U C71U | < 1e-05 s⁻¹ |  | 
43 | U31C G32A U55A | 0.000149 ± 2.6e-05 s⁻¹ | 0.000644 ± 0.00017 s⁻¹ | 
44 | G29C A48G G60A | < 1e-05 s⁻¹ |  | 
45 | G29A C34U G60U | < 1e-05 s⁻¹ |  | 
46 | C16A A36G U65G C71U | < 1e-05 s⁻¹ |  | 

Row | Variant | self-cleavage kobs at 640 uM GlcN6P [1] | self-cleavage kobs at 2500 uM GlcN6P [2] | self-cleavage kobs at 10000 uM GlcN6P [3]
47 | A15G A53C C68U | 4.28e-05 ± 2e-05 s⁻¹ | 0.000114 ± 3.9e-05 s⁻¹ | 
48 | A15G A48U C50U G60A C68G | 0.000775 ± 0.00022 s⁻¹ |  | 
49 | G32A U54C C67U | 0.000136 ± 3.3e-05 s⁻¹ | 0.000349 ± 9.2e-05 s⁻¹ | 
50 | A15G G40A G59U C67G | < 1e-05 s⁻¹ | < 1e-05 s⁻¹ | 
51 | C16U C58U C67U C70U | 0.000267 ± 6.7e-05 s⁻¹ | 6.37e-05 ± 2.5e-05 s⁻¹ | 
52 | A33C G35A G41A | < 1e-05 s⁻¹ | < 1e-05 s⁻¹ | 
53 | G29A C50U C68A | 4.21e-05 ± 1.6e-05 s⁻¹ |  | 
54 | A33G G41C G63U | < 1e-05 s⁻¹ |  | < 1e-05 s⁻¹
55 | G29C U47A C50A | < 1e-05 s⁻¹ |  | < 1e-05 s⁻¹
56 | G32C A33G U47A U54C A64C C71U | < 1e-05 s⁻¹ | < 1e-05 s⁻¹ | 
57 | U31A G37U U47A U54C U69G | 5.3e-05 ± 2e-05 s⁻¹ |  | 
58 | G29U G66C | 4.59e-05 ± 1.9e-05 s⁻¹ | 9.16e-05 ± 2.9e-05 s⁻¹ | 
59 | G29U A33C C50U U57A C61U | < 1e-05 s⁻¹ |  | 
60 | U30C C34A | < 1e-05 s⁻¹ |  | < 1e-05 s⁻¹
61 | U31G G35C C68G | < 1e-05 s⁻¹ | < 1e-05 s⁻¹ | 
62 | C16U G38C | < 1e-05 s⁻¹ |  | 
63 | G29U A42G G62C | < 1e-05 s⁻¹ |  | 
64 | A15U C16A A52U A53C | < 1e-05 s⁻¹ | < 1e-05 s⁻¹ | 
65 | U30G A42G U45C C70A C71A | < 1e-05 s⁻¹ |  | 
66 | G32U U56A C68G | 0.000222 ± 9e-05 s⁻¹ |  | 
67 | A33U U49A G51C | < 1e-05 s⁻¹ |  | 
